According to the supplement of paper PMC11780869:

tested on: Bacillus subtilis; assay: cleaved RNA product abundance (RNA/gDNA barcode ratio) relative to median wild-type variant (ratio to wild type); higher = more accumulation of the downstream cleavage product; details: experiment (reporter, strain, medium): exp 8a: truncated aprE reporter, strain BJT201 with 2% xylose (RNase J1 expressed); cleavage site: glnRA (positions -5 to +31 mutated)
Outline: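 The B. subtilis chromosome carried reporter mRNAs, truncated aprE or tetM, containing barcoded RNase Y cleavage-site windows mutagenized using oligos with a 9% error rate. After growth in LB at 37°C from OD600 0.0003 to 0.3, cleaved RNA was gel-selected, reverse transcribed and barcode-sequenced next to genomic DNA barcodes, with UMI collapsing. Each construct's RNA:gDNA barcode ratio was scaled to the median construct with the unmutated site. That scaled ratio is reported as cleaved product abundance.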

Going from “CGACATGTCCCGCTTCTTTCATTATTCCGTTAGCAACAGTTTTGCTATATACATTTACCTTTTAAGAGGAGGAAT” to “CGACATGTCCCGCTTCTTTCATTATTCCGTTAGCAACGGTTTTGCTATATACATTTACCTTTTAAGAGGAGGAAT”, the “cleaved RNA product abundance” value falls from 1.12 to 0.56.

First: CGACATGTCCCGCTTCTTTCATTATTCCGTTAGCAACTATTTTGCTATATACATTTACCTTTTAAGAGGAGGAAT
Second: CGACATGTCCCGCTTCTTTCATTATTCCGTTAGCAACTATTTTTCTATATACATTTACCTTTTAAGAGGAGGAAT
The “cleaved RNA product abundance” value of the first is higher: 1.91 for the first, 0.956 for the second.

Compared with “CGACATGTCCCGCTTCTTTCATTATTCCGTTAGCAACTCTTTTGCTAAATACATTTACCTTTTAAGAGGAGGAAT”, “CGACATGTCCCGCTTCTTTCATTATTCCGTTAGCAACTCTTTTGCTATATACATTTACCTTTTAAGAGGAGGAAT” is higher in “cleaved RNA product abundance” value: 0.422 for the first, 2.3 for the second.

Compared with “CGACATGTCCCGCTTCTTTCATTATTCCGTTAGCAACTGCTTTGCTATATACATTTACCTTTTAAGAGGAGGAAT”, “CGACATGTCCCGCTTCTTTCATTATTCCGTTAGCAACTGGTTTGCTATATACATTTACCTTTTAAGAGGAGGAAT” is higher in “cleaved RNA product abundance” value: 0.681 for the first, 1.54 for the second.

Compared with “CGACATGTCCCGCTTCTTTCATTATTCCGTTAGCAACTGTATTGCTATATACATTTACCTTTTAAGAGGAGGAAT”, “CGACATGTCCCGCTTCTTTCATTATTCCGTTAGCAACTGTCTTGCTATATACATTTACCTTTTAAGAGGAGGAAT” is lower in “cleaved RNA product abundance” value: 1.36 for the first, 1.31 for the second.

Compared with “CGACATGTCCCGCTTCTTTCATTATTCCGTTAGCAACTGTGTTGCTATATACATTTACCTTTTAAGAGGAGGAAT”, “CGACATGTCCCGCTTCTTTCATTATTCCGTTAGCAACTGTTATGCTATATACATTTACCTTTTAAGAGGAGGAAT” is higher in “cleaved RNA product abundance” value: 0.7 for the first, 0.76 for the second.

Going from “CGACATGTCCCGCTTCTTTCATTATTCCGTTAGCAACTGTTCTGCTATATACATTTACCTTTTAAGAGGAGGAAT” to “CGACATGTCCCGCTTCTTTCATTATTCCGTTAGCAACTGTTGTGCTATATACATTTACCTTTTAAGAGGAGGAAT”, the “cleaved RNA product abundance” value rises from 0.551 to 0.941.

First: CGACATGTCCCGCTTCTTTCATTATTCCGTTAGCAACTGTTTAGCTATATACATTTACCTTTTAAGAGGAGGAAT
Second: CGACATGTCCCGCTTCTTTCATTATTCCGTTAGCAACTGTTTAGGTATATACATTTACCTTTTAAGAGGAGGAAT
The “cleaved RNA product abundance” value of the first is higher: 0.706 for the first, 0.443 for the second.

First: CGACATGTCCCGCTTCTTTCATTATTCCGTTAGCAACTGTTTCGCTATATACATTTACCTTTTAAGAGGAGGAAT
Second: CGACATGTCCCGCTTCTTTCATTATTCCGTTAGCAACTGTTTGGCTATATACATTTACCTTTTAAGAGGAGGAAT
The “cleaved RNA product abundance” value of the first is lower: 0.509 for the first, 0.949 for the second.

Going from “CGACATGTCCCGCTTCTTTCATTATTCCGTTAGCAACTGTTTTACTATATACATATACCTTTTAAGAGGAGGAAT” to “CGACATGTCCCGCTTCTTTCATTATTCCGTTAGCAACTGTTTTACTATATACATTTACCTTTTAAGAGGAGGAAT”, the “cleaved RNA product abundance” value rises from 0.607 to 0.812.

Going from “CGACATGTCCCGCTTCTTTCATTATTCCGTTAGCAACTGTTTTCATAAATACATTTACCTTTTAAGAGGAGGAAT” to “CGACATGTCCCGCTTCTTTCATTATTCCGTTAGCAACTGTTTTCCTATATACATTTACCTTTTAAGAGGAGGAAT”, the “cleaved RNA product abundance” value rises from 0.375 to 0.524.

Going from “CGACATGTCCCGCTTCTTTCATTATTCCGTTAGCAACTGTTTTGATATATACATTTACCTTTTAAGAGGAGGAAT” to “CGACATGTCCCGCTTCTTTCATTATTCCGTTAGCAACTGTTTTGCAATATACATTTACCTTTTAAGAGGAGGAAT”, the “cleaved RNA product abundance” value rises from 0.502 to 0.626.

Going from “CGACATGTCCCGCTTCTTTCATTATTCCGTTAGCAACTGTTTTGCCATATACATTTACCTTTTAAGAGGAGGAAT” to “CGACATGTCCCGCTTCTTTCATTATTCCGTTAGCAACTGTTTTGCGATATACATTTACCTTTTAAGAGGAGGAAT”, the “cleaved RNA product abundance” value rises from 0.346 to 0.52.

Going from “CGACATGTCCCGCTTCTTTCATTATTCCGTTAGCAACTGTTTTGCTAAATACATTTACCTTTTAAGAGGAGGAAT” to “CGACATGTCCCGCTTCTTTCATTATTCCGTTAGCAACTGTTTTGCTACATACATTTACCTTTTAAGAGGAGGAAT”, the “cleaved RNA product abundance” value falls from 0.93 to 0.626.

Compared with “CGACATGTCCCGCTTCTTTCATTATTCCGTTAGCAACTGTTTTGCTATAAACAGTTACCTTTTAAGAGGAGGAAT”, “CGACATGTCCCGCTTCTTTCATTATTCCGTTAGCAACTGTTTTGCTATAAACATTTACCTTTTAAGAGGAGGAAT” is higher in “cleaved RNA product abundance” value: 0.0919 for the first, 0.851 for the second.

First: CGACATGTCCCGCTTCTTTCATTATTCCGTTAGCAACTGTTTTGCTATACACATTTACCTTTTAAGAGGAGGAAT
Second: CGACATGTCCCGCTTCTTTCATTATTCCGTTAGCAACTGTTTTGCTATAGACATTTACCTTTTAAGAGGAGGAAT
The “cleaved RNA product abundance” value of the first is lower: 0.807 for the first, 0.917 for the second.

Going from “CGACATGTCCCGCTTCTTTCATTATTCCGTTAGCAACTGTTTTGCTATATAAATTTACCTTTTAAGAGGAGGAAT” to “CGACATGTCCCGCTTCTTTCATTATTCCGTTAGCAACTGTTTTGCTATATACAATTACCTTTTAAGAGGAGGAAT”, the “cleaved RNA product abundance” value rises from 0.753 to 1.31.

Compared with “CGACATGTCCCGCTTCTTTCATTATTCCGTTAGCAACTGTTTTGCTATATACACTTACCTTTTAAGAGGAGGAAT”, “CGACATGTCCCGCTTCTTTCATTATTCCGTTAGCAACTGTTTTGCTATATACAGTTACCTTTTAAGAGGAGGAAT” is lower in “cleaved RNA product abundance” value: 1.07 for the first, 0.649 for the second.

Compared with “CGACATGTCCCGCTTCTTTCATTATTCCGTTAGCAACTGTTTTGCTATATACATATACCTTTTAAGAGGAGGAAT”, “CGACATGTCCCGCTTCTTTCATTATTCCGTTAGCAACTGTTTTGCTATATACATCTACCTTTTAAGAGGAGGAAT” is lower in “cleaved RNA product abundance” value: 1.59 for the first, 1.15 for the second.

Compared with “CGACATGTCCCGCTTCTTTCATTATTCCGTTAGCAACTGTTTTGCTATATACATTAACATTTTAAGAGGAGGAAT”, “CGACATGTCCCGCTTCTTTCATTATTCCGTTAGCAACTGTTTTGCTATATACATTAACCTTTTAAGAGGAGGAAT” is lower in “cleaved RNA product abundance” value: 2.49 for the first, 1.44 for the second.

First: CGACATGTCCCGCTTCTTTCATTATTCCGTTAGCAACTGTTTTGCTATATACATTCACCTTTTAAGAGGAGGAAT
Second: CGACATGTCCCGCTTCTTTCATTATTCCGTTAGCAACTGTTTTGCTATATACATTGACCTTTTAAGAGGAGGAAT
The “cleaved RNA product abundance” value of the first is lower: 1.3 for the first, 1.55 for the second.

Compared with “CGACATGTCCCGCTTCTTTCATTATTCCGTTAGCAACTGTTTTGCTATATACATTTAACTTTTAAGAGGAGGAAT”, “CGACATGTCCCGCTTCTTTCATTATTCCGTTAGCAACTGTTTTGCTATATACATTTACATTTTAAGAGGAGGAAT” is higher in “cleaved RNA product abundance” value: 1.71 for the first, 1.98 for the second.

First: CGACATGTCCCGCTTCTTTCATTATTCCGTTAGCAACTGTTTTGCTATATACATTTACCATTTAAGAGGAGGAAT
Second: CGACATGTCCCGCTTCTTTCATTATTCCGTTAGCAACTGTTTTGCTATATACATTTACCCTTTAAGAGGAGGAAT
The “cleaved RNA product abundance” value of the first is higher: 1.89 for the first, 0.558 for the second.

First: CGACATGTCCCGCTTCTTTCATTATTCCGTTAGCAACTGTTTTGCTATATACATTTACCGTTTAAGAGGAGGAAT
Second: CGACATGTCCCGCTTCTTTCATTATTCCGTTAGCAACTGTTTTGCTATATACATTTACCTTTTAAGAGGAGGAAT
The “cleaved RNA product abundance” value of the first is lower: 1.18 for the first, 1.42 for the second.

Compared with “CGACATGTCCCGCTTCTTTCATTATTCCGTTAGCAACTGTTTTGCTATATACATTTACGTTTTAAGAGGAGGAAT”, “CGACATGTCCCGCTTCTTTCATTATTCCGTTAGCAACTGTTTTGCTATATACATTTACTTTTTAAGAGGAGGAAT” is lower in “cleaved RNA product abundance” value: 2.39 for the first, 1.96 for the second.

Going from “CGACATGTCCCGCTTCTTTCATTATTCCGTTAGCAACTGTTTTGCTATATACATTTATCTTTTAAGAGGAGGAAT” to “CGACATGTCCCGCTTCTTTCATTATTCCGTTAGCAACTGTTTTGCTATATACATTTCCCTTTTAAGAGGAGGAAT”, the “cleaved RNA product abundance” value falls from 1.8 to 1.01.

Going from “CGACATGTCCCGCTTCTTTCATTATTCCGTTAGCAACTGTTTTGCTATATACATTTGCCTTTTAAGAGGAGGAAT” to “CGACATGTCCCGCTTCTTTCATTATTCCGTTAGCAACTGTTTTGCTATATACATTTTCCTTTTAAGAGGAGGAAT”, the “cleaved RNA product abundance” value rises from 0.599 to 0.792.

Going from “CGACATGTCCCGCTTCTTTCATTATTCCGTTAGCAACTGTTTTGCTATATACCTTTACCTTTTAAGAGGAGGAAT” to “CGACATGTCCCGCTTCTTTCATTATTCCGTTAGCAACTGTTTTGCTATATACGTTTACCTTTTAAGAGGAGGAAT”, the “cleaved RNA product abundance” value rises from 0.383 to 0.645.

First: CGACATGTCCCGCTTCTTTCATTATTCCGTTAGCAACTGTTTTGCTATATACTTTTACCTTTTAAGAGGAGGAAT
Second: CGACATGTCCCGCTTCTTTCATTATTCCGTTAGCAACTGTTTTGCTATATAGATTTAACTTTTAAGAGGAGGAAT
The “cleaved RNA product abundance” value of the first is lower: 0.815 for the first, 0.911 for the second.

Compared with “CGACATGTCCCGCTTCTTTCATTATTCCGTTAGCAACTGTTTTGCTATATAGATTTACCTTTTAAGAGGAGGAAT”, “CGACATGTCCCGCTTCTTTCATTATTCCGTTAGCAACTGTTTTGCTATATATATTTACCTTTTAAGAGGAGGAAT” is higher in “cleaved RNA product abundance” value: 1.02 for the first, 1.45 for the second.

“CGACATGTCCCGCTTCTTTCATTATTCCGTTAGCAACTGTTTTGCTATATCCATTTACCTTTTAAGAGGAGGAAT” was tested, and the “cleaved RNA product abundance” value was 0.359.
